The nanobody polyreactivity screen of Harvey et al. (2022)

Experiment: yeast display, Sf9 membrane polyspecificity reagent, FACS + sequencing; frameworks hold sequencing errors
Method in brief: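 Galactose induction of a Saccharomyces cerevisiae BJ5465 synthetic nanobody display library ran 36–48 hours. The cells were then stained for 1 hour at 4 °C with 10% biotinylated, detergent-solubilized Sf9 membrane reagent, pulled down on streptavidin microbeads and FACS-sorted into low and high (top ~1%) gates on expression and reagent-binding fluorescence. Labels for polyreactivity follow the gate of origin.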

| Sequence | polyreactivity (PSR sort gate) |
| --- | --- |
| QVQLVESGGGLVQAGGSLRLSCAASGSTFTSNAMGWYRQAPGKERELVASISGSGGRTYYADSVKGRFTISRDNAKNTVYLQMNSLKPEDTAVYYCARRHSVRTVHGYDYWGQGTQVTVSS | low polyreactivity |
| QVQLVESGGGLVQAGGSLRLSCAASGSTFTSYAKGCYRQAPGKERELVAAISRRGTSTYYADSVKGRFTISRDNAKHTVYLQMNSLKPEDTAVYYCAADGYYCEYYYWGQGTQVTVSS | high polyreactivity |
| QVQLVESGGGLVQAGGSLRLSCAASGSTFTSYAMGWYRQAPGKEREFVAAISWSGGSTYYADSVKGRFTISRDNAKNTVYLQMNSLKPEDTAVYYCNAVLRSYYSPWYDYWGQATQVTVSS | high polyreactivity |
| QVQLVESGGGLVQAGGSLRLSCAASGSTFTSYAMGWYRQAPGKERELVAAISKSGGSTYYADSVKGRFTISRDNAKNTVSLQMNSLKPEDSAVFYCAARYIVRSYSTSRFDYWGQGTQVTVSS | low polyreactivity |
| QVQLVESGGGLVQAGGSLRLSCAASGSTFTSYTMGWYRQAPGKERELVARITRGGGSTYYADSVKGRFTISRDNAKNTVYLQMNSLKPEDTRSSPVLSYDYWGQGTQVTVSS | low polyreactivity |
| QVQLVESGGGLVQAGGSLRLSCAASGSTFTSYTMGWYRQAPGKERELVARNTRGGGSTYYADSVKGRFTISRDNAKNTVYLQMNSLKPEDTAVYYCAKQVVGRAYYSWGQGTQVTVSS | low polyreactivity |
| QVQLVESGGGLVQAGGSLRLSCAASGSTFTTNVMGWYRQAPGKERELVAAISWSSGSTYYADSVKGRFTISRDNAKNTVSLPMNSLKPEDTAVYYCAARQVIFYPYSRYYYWGQGTQVTVSS | high polyreactivity |
| QVQLVESGGGLVQAGGSLRLSCAASGSTFTTYAMGWYRQAPGKERELVAAITVDGGGTYYADSVKGRFTISRDNAKNTVYLQMNSLKPVDTAVYYCAAVTKLGYPPVNHLEDDYWGQGTQVTVSS | low polyreactivity |
| QVQLVESGGGLVQAGGSLRLSCAASGSTFTTYGMGWYRQAPGKERELVAGITFRGGSTYYADSVKGRFTISRDNAKNTVYLQMNSLKPEDTAVYYCAAERWRWYYSWTMDYWGQGTQVTVSS | high polyreactivity |
| QVQLVESGGGLVQAGGSLRLSCAASGSTFTVNGMGWYRQAPGKERELVAAITWSGGSTYYADSVKGRFTISRDTAKNTVYLQMNSLKPEDTAVYYCAADENLYITGYDYWGQGTQVNVSS | low polyreactivity |
| QVQLVESGGGLVQAGGSLRLSCAASGSTFTVYAMGWYRQAPGKEREFVAAITPSGASTYYADSVKGRFTISRDNAKNTVYLQMNSLKPEDTAVYYCNARSRTGYTNRMYYWGQGTQVTVSS | high polyreactivity |
| QVQLVESGGGLVQAGGSLRLSCAASGSTFTVYAMGWYRQAPGKERELVAAISESGTSTYYADSVKGRFTISRDNAKNTVYLQMNSLNPEDTAVYYCAADGPGTSEDDYWGQGTQVTVSS | high polyreactivity |
| QVQLVESGGGLVQAGGSLRLSCAASGSTFTWNAMGWYRQAPGTERELVAAITSGGRTYYADSVKGRFTISRDNAKNTVYLQMNSLKPEDTAVYYCAAKVRQYYSACNYYYWGQVTQVTVSS | high polyreactivity |
| QVQLVESGGGLVQAGGSLRLSCAASGSTFTWNDMGRYRQAPGKERELVAGISLSAGSTYYADSVKGRFTISRDNAKNTDYLQMNSLKPEDTAVYYCNADPGGPDTYEEHDYWGQGTQVTVSS | low polyreactivity |
| QVQLVESGGGLVQAGGSLRLSCAASGSTFTWYAMGWYRQAPGKERELVADISYGGGSTYYADSVKGRFTISRDNAKNTVYLQMNSLKPEDTAVYYCAAESIPYYSYDYWGQGTQVTVSS | low polyreactivity |
| QVQLVESGGGLVQAGGSLRLSCAASGSTFTYNAMGWYRQAPGKERELVAAIRSNGGSTYADSVKGRFTISRDNAKNTVYLQMNCLKPEDTAVYYWAARWRDYYRWGSRGGYGYWGQGTQVTVSS | high polyreactivity |
| QVQLVESGGGLVQAGGSLRLSCAASGSTFTYYAMGWYRKAPGKETELVAAIDFSGTSTYYADSVKGRFTISRDNAQNTVYLKMNSLKPEDTSVYYCAASQSWYWGGAHDNGEFGYWGQGTQVTVSS | low polyreactivity |
| QVQLVESGGGLVQAGGSLRLSCAASGSTFTYYAMGWYRQAPGKERELVAAINYSGGSTYYADSVKGRFTISRDNAKNTVYLQMNSLKPEDTAVYYCAADGYIRQYVTYYYWGQGTQVTVSS | low polyreactivity |
| QVQLVESGGGLVQAGGSLRLSCAASGSTFTYYAMGWYRQAPGKERELVAAISSNGGSTSYADSVKGRFTISRDNAKNTVYLPMNRLKPEDTAVYYCAVYKWSTRVSQYRYDYWGQGTQVTVSS | high polyreactivity |
| QVQLVESGGGLVQAGGSLRLSCAASGSTFTYYAMGWYRQAPGKERELVASISGSGSRTYYADSVKGRFTISRDTAKNTVYLQMNSLTPEDTAVYSCAARFYVRWYYYGSYANYWGQGTQVTVSS | high polyreactivity |
| QVQLVESGGGLVQAGGSLRLSCAASGSTFTYYAMGWYRQARGKERELVAAISSGGSTYYADSVKGRFTISRDNAKNTDYLQMNSLKPEDTAVYYCAARGYYGKFSGTGYWGQGTQVTVSS | high polyreactivity |
| QVQLVESGGGLVQAGGSLRLSCAASGSTFVAYTMGWYRQAPGKERELVAAITKRGSSTYYADSVKGRFTISRDNAKNTVYLHMNSLKPEDTAVYYCAAARSLKSYEGDYWGQGTQVTVSS | high polyreactivity |

| Sequence | polyreactivity (PSR sort gate) |
| --- | --- |
| QVQLVESGGGLVQAGGSLRLSCAASGSTFVDNAMGWCRQAPGKERELVADISSGGSTYYADSVKGRFTISRDNAKNTVYLQMNSLKPEDTAVYYCAARGVYRRGKYNSWGQGTQVTVSS | high polyreactivity |
| QVQLVESGGGLVQAGGSLRLSCAASGSTFVDNAMGWYRQAPGKERELVAAITSSGGSTYYADSVKGRFTISRDNAQNTVYLQMNSLKPEDTAVYYCAADEWIVHDGYYSSYYYWGQGTQVTVSS | low polyreactivity |
| QVQLVESGGGLVQAGGSLRLSCAASGSTFVDNAMGWYRQAPGKERELVADISSGGSTYYADSVKGRFTISRDNAKNTVYLQMNSLKPEDTAVYYCAARRITSTDEYYWGQGTQVTVSS | high polyreactivity |
| QVQLVESGGGLVQAGGSLRLSCAASGSTFVDYAMGWYRQAPGKEREFVAAISFSGDSTYYADSVKGRFTISRDNAKNSVYLQLNSLKPEDTAVYYCAASRPYYNRQYYRSWRDDYWGQGTQVTVSS | low polyreactivity |
| QVQLVESGGGLVQAGGSLRLSCAASGSTFVFYTMGWYRPAPGKERELVAGISRNGGSTYYADSVKGRFTISRDNAKNTVYLQMNSLKTEDSAVYYCAALTWSRAYYSRKFYYWGQGTQVTVSS | high polyreactivity |
| QVQLVESGGGLVQAGGSLRLSCAASGSTFVGNAKGWYRQAPGKERELVAAITGGGGSTYYADSVKGRFTISRDNAKNTVYLQMNSLKPEDTAVYYCARDRTDYYVCYVRYYYWGQGTQVTVSS | low polyreactivity |
| QVQLVESGGGLVQAGGSLRLSCAASGSTFVGNAMGSYRQAPGKERELVATISNSGGRTYYADSVKGRFTISRDNAKNPVYLQRNSLKPEDTAVYYCPADHPAFGPGYSFDYWGQGTQVTVSS | low polyreactivity |
| QVQLVESGGGLVQAGGSLRLSCAASGSTFVGNSMGWYRKAPGKERELVAAISGSAGRTYYADSVKGRFTISRDNAKNTVYLQMNSLKPEDTAFYYCNKRYRGGVVYSRYDYWGQGTQVTVSS | low polyreactivity |
| QVQLVESGGGLVQAGGSLRLSCAASGSTFVGNVMGWYRQAPGKERELVATISRSGGRTYYADSVKGRFTISRDNAKNTVYLQMNSLKPEDTAVYYCAAGFVYTTASRWGGRTRYDYWGQGTQVTVSS | high polyreactivity |
| QVQLVESGGGLVQAGGSLRLSCAASGSTFVGYAMGWYRHAPGKERELVAAISSSGGRTNYADSVKGRFTISRDNAKNTVYLQMNSLKPEDTAVYYCAAKAYRSPVYYWGQGTQVTVSS | high polyreactivity |
| QVQLVESGGGLVQAGGSLRLSCAASGSTFVGYAMGWYRPAPGKDRELVADIDSIGGSTYYADSVKGRFTISRDNAKNTVYVQMNSPKPEDTAVYYCAKTWYPWSRSGYYRRYDSWGQGTQVTVSS | low polyreactivity |
| QVQLVESGGGLVQAGGSLRLSCAASGSTFVGYAMGWYRQAPGKERELVAAISGRGGSTYYADSVKGRFTISRDNAKNTVYLQMNSLKPEDTAVYYCNARRRKTVPNYIYNYWGQGTQVTVSS | high polyreactivity |
| QVQLVESGGGLVQAGGSLRLSCAASGSTFVGYAMGWYRQAPGKERELVAAISRSGGRTYYADSVKGRFTISRDNAKNTVYLQMNSLKPEDTAVYYCYPYYIASTFDYWGQGTQVTVSS | high polyreactivity |
| QVQLVESGGGLVQAGGSLRLSCAASGSTFVGYAMGWYRQAPGKERELVADIDSIGGSTYYADSVKGRFTISRDNAKNTVYLQMNSMKPEDTAVYYCAARRFDTALVLYDYWGQGSQVTVSS | low polyreactivity |
| QVQLVESGGGLVQAGGSLRLSCAASGSTFVINAMGWYRQAPGKERELVAAISYDGGGTYYADSVKGRFTISRDNAKNTVYLQMNSLKPEDTAGYYCAAENFYPYTYYASDYWGQGTHVTVSS | high polyreactivity |
| QVQLVESGGGLVQAGGSLRLSCAASGSTFVIYAMGWYIQAPGKERELVAAINSGVSTYADSVKGRFTISRDNAKNTVYLQMNSLKPEDTAVYYCNAVSRPPYGPVFSAPAGGSWGQGTQVTVSS | low polyreactivity |
| QVQLVESGGGLVQAGGSLRLSCAASGSTFVIYAMGWYRQAPGKERELVASIRGRTGSTYYADSVKGRFTISRDNAKNTVYLQMNSLKPEDTAVYYCAATPGYKSKMDYWGQGTQVTVSS | high polyreactivity |
| QVQLVESGGGLVQAGGSLRLSCAASGSTFVIYGMGWYRQAPGKERELVADITWIGGSTYYADSVKGRFTISRDNAKNTVYLQMNSLKPEDTAVYYCAADAAYLYLYNWYDTEDDYWGQGTQVTVSS | low polyreactivity |
| QVQLVESGGGLVQAGGSLRLSCAASGSTFVIYTMGGSRQAPGKERELVAAISWSGGITRYADSVKGRFTISRDIAKNTVYLQMNSLKPEDTAVYYCNASQWPSRFDYWGQGTQVSVSS | low polyreactivity |
| QVQLVESGGGLVQAGGSLRLSCAASGSTFVKNDMGWYRQAPGKERELVAANSGGSTNYADSVTGRFTISRDNAKNTVYLQMNSLKPEDTAVYYCNAAVITKYAGRGGRPTGRMYYWGQGTQVTVSS | low polyreactivity |
| QVQLVESGGGLVQAGGSLRLSCAASGSTFVKYAMGWYRQAPGKERELVAAIDSSGGSTYYADSVKGRFTISRDNAKNTVYLQMNSLKAEDTAVYYCAAPRGNRLKGLEGYYWGQGTQVTVSS | high polyreactivity |
